For two molecules, Kd, koff and kon results are on record in patent publication US20240327530A1 (ICHNOS SCIENCES, published 2024).

The target of assay [1] is T1, Human IL-1RAP, membrane-bound on human cells (HaCaT, dermal fibroblasts, neutrophils, PBMC, whole blood) (human, UniProt Q9NPH3 21-570).
T1 construct: Endogenous protein on cells
T1 sequence: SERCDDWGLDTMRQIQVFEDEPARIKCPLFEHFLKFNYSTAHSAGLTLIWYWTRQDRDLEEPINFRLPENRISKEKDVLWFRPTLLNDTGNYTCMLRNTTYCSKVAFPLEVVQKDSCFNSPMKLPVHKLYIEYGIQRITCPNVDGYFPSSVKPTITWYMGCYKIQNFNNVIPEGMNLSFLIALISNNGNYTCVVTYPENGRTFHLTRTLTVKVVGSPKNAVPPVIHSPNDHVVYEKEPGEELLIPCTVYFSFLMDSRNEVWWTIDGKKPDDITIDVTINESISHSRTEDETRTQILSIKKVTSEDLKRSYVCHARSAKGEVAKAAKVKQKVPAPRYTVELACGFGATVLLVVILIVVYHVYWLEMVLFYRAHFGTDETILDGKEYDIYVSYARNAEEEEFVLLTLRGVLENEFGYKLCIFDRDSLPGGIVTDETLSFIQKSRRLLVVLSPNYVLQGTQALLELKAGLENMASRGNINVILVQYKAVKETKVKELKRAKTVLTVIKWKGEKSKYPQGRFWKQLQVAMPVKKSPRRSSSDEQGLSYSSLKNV
The experiment in a line: flow cytometry on normal human fibroblasts, nonlinear sigmoidal regression. On the procedure: Bound antibodies were detected with a monoclonal anti-human IgG PE-Cyanine7 secondary antibody. The graphs show the nonlinear sigmoidal regression binding curves (Relative Geometric Mean Fluorescence Intensity) for each cell lines. Each data point is a measurement for a given cell line. Multiple independent experiments were performed across several donors (HaCaT and HaCaT IL-1RAP KO: 4 and 3 independent experiments; Human Dermal Fibroblasts: 2 independent experiments—total of 5 donors; Human Neutrophil: 2 experiments—total of 6 donors; Cyno Dermal Fibroblasts: 2 independent experiment—total of 4 donors).
In brief, cells were harvested, counted, and plated at 50,000 cells/well in a 96-well round-bottom plate. The plate was centrifuged at 350 g for 3 minutes and the cells were resuspended in 50 μl of FACS® buffer (PBS (1×)+2.5% FCS+2 mM EDTA+0.05% NaN₃) containing various concentrations (ranging from 50 to 0.00003 μg/ml) of either anti-human IL-1RAP_candidate_1 or Isotype control_5 antibodies. […] The cells were gated based on size on FSC vs SSC and analyzed for PE-Cyanine7-geometric mean (geomean) fluorescence intensity using FLOWJO® software. Finally, relative geomean fluorescence intensity was calculated by subtracting fluorescence of anti-human IL-1RAP_candidate_1 per fluorescence of Isotype control_5. […]
On the technique in general: In flow cytometry, cells or beads pass a laser one at a time.

The target of assay [2] is T2, Recombinant mouse IL-1RAP-his (Sino Biologicals, catalog no. 52657-M08H) (mouse, UniProt Q61730 21-350).
T2 construct: Bought; not shown: His tag of the bought protein
T2 sequence: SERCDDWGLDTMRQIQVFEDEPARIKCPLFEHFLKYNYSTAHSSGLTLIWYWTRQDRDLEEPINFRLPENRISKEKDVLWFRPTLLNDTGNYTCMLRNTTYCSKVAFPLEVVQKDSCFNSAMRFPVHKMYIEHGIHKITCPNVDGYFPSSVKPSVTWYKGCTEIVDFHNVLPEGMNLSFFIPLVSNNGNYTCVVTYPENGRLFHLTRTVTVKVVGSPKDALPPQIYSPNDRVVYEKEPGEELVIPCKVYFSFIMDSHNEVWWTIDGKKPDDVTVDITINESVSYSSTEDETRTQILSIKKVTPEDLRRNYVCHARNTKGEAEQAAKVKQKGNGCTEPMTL
The experiment in a line: SPR, mouse IgG2a LALA captured on anti-mouse IgG Fc CM5 chip, mouse IL-1RAP-his as analyte in a concentration series, 1:1 fit, one representative replicate. As to the method: Anti-IL-1RAP-C3-A3 mouse IgG2a LALA was immobilized on a Series S CM5 sensor CHIP coupled with anti-mouse IgG Fc. Mouse IL-1RAP-his was injected over immobilized IgG2a LALA in concentration series in HBS-EP+ buffer. One representative replicate is presented. Plots are showing data expressed as number of resonance units (abbreviated RU; Y axis) vs. time (s, X axis). Dotted lines represent the measured data while solid lines represent simulated fits. KD: equilibrium dissociation constant; Ka: association constant; Kd: dissociation constant.
Surface plasmon resonance (SPR) was used to measure the binding affinities of mouse IgG2a LALA molecules for mouse IL-1RAP. Affinity was measured on a BIACORE™ T200 instrument (BIACORE™ GE […]®) at 25° C. and analyzed with the BIACORE™ T200 Evaluation Software (v3.1). Measurements were performed on Series S CM5 sensor chips (BIACORE™ T200, BIACORE™, GE […]®, catalog no. BR100530) coupled with anti-mouse IgG Fc (BIACORE™, GE […]®, catalog no. BR100838) using a commercial amine coupling kit (BIACORE™, GE […]®, catalog no. BR100050). SPR measurements were performed with commercially available recombinant mouse IL-1RAP-his (Sino Biologicals, catalog no. 52657-M08H). The affinity to mouse IL-1RAP was assessed by immobilizing anti-mouse IL-1RAP mouse IgG2a LALA molecule and using mouse IL-1RAP protein as analyte. Around 150 RU of mouse IgG2a LALA was captured on fc2 of a Series S CM5 sensor chip coupled with anti-mouse IgG Fc. Mouse IL-1RAP-his was injected in multi cycle kinetic at different concentrations ranging from 0.14 to 100 nM, in HBS-EP+ buffer (BIACORE™, GE […]®, catalog no. BR100669) at a flow rate of 30 μl/min for 3 min on fc1 and fc2 (fc1 being used as reference). Dissociation was monitored for 15 min. After each cycle, the surface was regenerated with 60 μl of regeneration solution provided with anti-mouse IgG Fc capture kit (BIACORE™ GE […]®, catalog no. BR100838). Experimental data were processed using the 1:1 Langmuir kinetic fitting model. Measurements included zero-concentration samples for referencing. […]
On the technique in general: Surface plasmon resonance follows binding to a sensor surface in real time, without labels.

B1: Anti-IL-1RAP-C8-RecC-ES-IgG1LALA (antibody, V domains shown)
VH: QVQLVQSGAEVKKPGSSVKVSCKASGSPAEPYAIQWVRQAPGQGLEWMGYIIPSLGGYDYAQKFQGRVTITADESTSTAYMELSSLRSEDTAVYYCARGQTLYESGRQFDIWGQGTLVTVSS
VL: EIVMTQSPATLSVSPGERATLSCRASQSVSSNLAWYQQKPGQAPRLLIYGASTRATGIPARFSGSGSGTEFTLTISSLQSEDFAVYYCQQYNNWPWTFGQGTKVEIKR
notes: also called ISB 880-C8-recC-ES
By Kd is commonly meant the concentration at which binding is half-saturated. B1 showed a Kd in assay [1] of 3.1 nM.

B2: Anti-IL-1RAP-C3-A3 mmIgG2a LALA (antibody, V domains shown)
VH: EVQLLESGGGLVQPGGSLRLSCAASGFIFSHYGMSWVRQAPGKGLEWVSAISYDGEGTLYADSVKGRFTISRDNSKNTLYLQMNSLRAEDTAVYYCARFRYYTAFDYWGQGTLVTVSS
VL: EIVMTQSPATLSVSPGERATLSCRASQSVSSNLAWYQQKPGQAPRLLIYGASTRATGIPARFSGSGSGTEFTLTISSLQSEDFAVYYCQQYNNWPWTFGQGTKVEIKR
notes: also called anti-IL-1RAP-C3-A3 mouse IgG2a LALA
For orientation: koff means a measure of how fast the partners let go of each other. As usually defined, the kon is a measure of how fast the partners come together. Turning to B2, in assay [2], the Kd worked out at 0.557 nM, the off-rate constant (koff) is 7.6e-05 s⁻¹ and the kon turned out to be 137000 M⁻¹ s⁻¹.
